Measurements as given in the nanobody polyreactivity screen of Harvey et al. (2022).

Assay: yeast display, Sf9 membrane polyspecificity reagent, FACS + sequencing; frameworks hold sequencing errors
In short: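 After 36–48 hours of galactose induction, yeast (Saccharomyces cerevisiae BJ5465) displaying a synthetic nanobody library were stained at 4 °C for 1 hour with 10% biotinylated, detergent-solubilized Sf9 membrane reagent. Streptavidin microbeads enriched the stained cells before FACS sorting into low and high (top ~1%) gates on anti-HA and streptavidin fluorescence. Each clone's polyreactivity label reflects its gate of origin.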

| Sequence | polyreactivity (PSR sort gate) |
| --- | --- |
| QVQLVDSGGGLVQAGGSLRLSCSASGYIFYANTMGWYRQAPGKEREFVATISWIGSTYYADSVKGRFTISRDNAKNTVYLQMNSLKPEDTAVYYCNARYTYRRYGRYDYWGQGTQVTVSS | high polyreactivity |
| QVQLVDSGGGLVQAGGSLRLSFAASGRIFAGYAMGWYRQAPGKERELVASIRYSGGSTYADSVKGRFTISRDNAKKTVYLQMNSLKPEDTAVYYSADGVQSVYNGEPGIILEFDYWGQGTQVTVSS | low polyreactivity |
| QVQLVDSGGGLVQAGGSLRLTCAASARTFHYYAMGWYREAPGKERELVAAITSSGGSTYADSVKGRFTISRDNAKNTVYLQMNSLKPEDTAVYYCARDRYDNPYDQELDYWGQGTQVTVSS | low polyreactivity |
| QVQLVDSGGGLVQAGGSLRLTCAASGFIFGYNTMGWYRQAPGKERELVAAIDSGGSTNYADSVKGRFTISRDNAKNTDYLQMNSLKPEDTAVYYCARESDWWREFPYDYWGQGTQVNVSS | low polyreactivity |
| QVQLVDSGGGLVQAGGSLRLTCAASGGIFKRYAMGWYRQAPGKERELVAAISGRGGGTYYADSVKGRFTISRDNAKNTVYLQMNSLKPEDTAVYYCNARLSWSAFGYWGQGTQVTVSS | high polyreactivity |
| QVQLVDSGGGLVQAGGSLRLTCAASGNTFYYYAMGWYRQAPGKERELVAAINRGGNTYYADSVKGRFTISRDNAKNTVYLQMNSLKPEDTAVYYCAKRKSNPGNRQEYYYWGQGTQVTVSS | low polyreactivity |
| QVQLVDSGGGLVQAGGSLRLTCAASGSIFNHKAMGGYRQAHGKERELVAAIRFSTGTTYYADSVKGRFTISRDYAMNTVYVQMNSLKPEDTAVYYWNAQGYFTDYWLSSYFRDFDYWGQGTHVTVSS | low polyreactivity |
| QVQLVDSGGGLVQAGGSLRVSCAASGLIFTRNAMGWYRPAPGKERELVAAISSSGGSTYYADSVKGRFTISRDNAKNTVYLQLNSLKPEDTAVYYCATDAAYLFTAYDYWGQGTQVTVSS | low polyreactivity |
| QVQLVDSGGGLVQAGGSLSLSCAASGITFYRYMGLYRQGPWKSRELVASITGRGGSTYYADSVKGRFTISRDNAKNTGYLEMNSLKPEDTAVYYCAAVFPTKSSTWYDYWGQGTQVTVSS | high polyreactivity |
| QVQLVDSGGGLVQAGGSLSLSCAASGSILRYYAMVWYRQAPGKERELVAAISRSGGSTYYADSVKGRVTISGDNAKNKVYLLMNRLKPEDTAVYYCANSDFGHHVTGFGYWGQGTQVTVSS | low polyreactivity |
| QVQLVDSGGGLVQAGGSRRLSCADSGSIFGDYDMGWYRQAHGKERELVATIRYSGGTTYYADSVKGRFTISRDNAKNTVYLQLISLKPEDTAVYYCNARVWLFWTSELDSWGQGTQVTVSS | low polyreactivity |
| QVQLVDSGGGLVQAGVSLRLSCAASGSTFVGYAIGSYSQAPGKERELVAAISRSGGRTYYADSVKGRFTISRDKAKNTVYLQMNSLKPEDTAVYYCYPYYIASTFDEWGQGTQVTVSS | high polyreactivity |
| QVQLVDSGGGLVQGGGSLRLSCADSGYIFGRNAMGWYRQATGKEREFVAALSSSGSSTYYADSVKGRFTISRDNEKNTDYLQLNSLKPEDTAVDYCNAVRYYLAVPYDSWGQGTQVTVSS | high polyreactivity |
| QVQLVDSGGGVVQAGGSLRLSCAASGFIFHRYAMGWYRPAPGKERELVASITRSGGSTYYADSVKGRFTISRDNAKNTVYLQMNSLKPEDTAVYYCAAQLPAYYKYPRHDYWGQGTQVTVSS | high polyreactivity |
| QVQLVDSGGVLVQAVGSLRLSCAASGIIFDWYAMGWYRQAPGKERELVAAITANSDSTYYADSVNGRFTISRDNAKNTVYLQMNSLKPEDTAVYYCAARRQHRGANGGDYCGQGTQVTVSS | high polyreactivity |
| QVQLVDSGPGLVQAGGSLRLSCAASGGTFQPNARGCYRQAPGKERELVAAISGSGDSTYYADSVKGRFTISRDNAKNTVYLQMNSLKPEDTAVYYCNAYFWFSRYAWGDTSYDYWGQGTQVTVSS | low polyreactivity |

| Sequence | polyreactivity (PSR sort gate) |
| --- | --- |
| QVQLVDSGVGLVQAGGRLSLSCAASGLIFDFYAMGGYRQAPGKERELVATISWSGGTTSYADSVKGLFTISRDNAKNTVYIQMNSLKPEDTAVYYCAADGFQYTLGNYYWGQGTQVTLSS | high polyreactivity |
| QVQLVDSRGGLVQAGGSLRLSCAASGRTFYRYAKGWDRPAPGKERDLVAVITSGSRTKYADSVKGRFTISRDTAKITVYLQMKSLKPEDTAVYSCAARGLALEGKSSGEYWGQGTQVTVSS | high polyreactivity |
| QVQLVDSRGGLVQAGGSLRLSCAASGSIFSYYAMGWYRQAPGKEMELVAAITSSDGSTYYPDSVKGRFTISRDNAKNTVYLQINSLKPEDTAVYDCKAVRKYWLLGRYDYWGQGTQVTVSS | high polyreactivity |
| QVQLVDSWGGLVQAGASLRLSCAASGNTYSSYAMGWYRKAPGKERELVASITGRGGSTYYSDSVKGRFTISRDNAKNIVYLQMNSLKPEDTAVYYCTAKRFYITDDPLDYFYWGQCTQVTVSS | high polyreactivity |
| QVQLVDTAGGLVQAGGILRLSCAASGSTMYGYAMGWYRQTPGKERELVAAINTGGSTNYADSVKGRFTISRDNAKNTVYLQMNSLKPDDTAVYYCAASYSLSFWDKDDYWGQGTQVTVSS | low polyreactivity |
| QVQLVDTGGGLGQAGGSLRLSCAASGSTFFPYAMGWYRQAPGKEREFVAGISSDGGTSYADSVKGRFTISRDNAKNTVYLQMNSLKPEDTAVYYCAALQADRDRYPEFDLMDYWGQGTQVSVSS | low polyreactivity |
| QVQLVDTGGGLVQAGGSLRLICAASGSIFKIYAMGWYRQAPGKERELVAAISSSGGSTYYADSVKGRFTISRDNAKNTVYLQMNCLKPEDTAVYYCAAGQSWRKNAYRYDYWGQGTQVTVSS | high polyreactivity |
| QVQLVEAGGGLVQAGGSLRLSCAAAGRTFSANALGWSRQAPGKERELVATITLRGGSTNYADSVKGPFTISRDHAKNTVYLQINSLKPEDTAVYDCNAYVNANVRRAYWGFDYWGQGTHVTVSS | high polyreactivity |
| QVQLVEAGGGLVQAGGSLRLSCAASGFIFSSNAMGWYRQAPGKERELVAGITASGVSTYYADSVKGRFTISRDNAKNTVYLQMNSLKPEDTAVYDCAALGLYYYFYSQYIAWDDYWGQGTQVTVSS | low polyreactivity |
| QVQLVEAGGGLVQAGGSLRLSCAASGGTFTAYAMGWYRQAPGKERELVAAISASGDSTYYADSVKGRFTISRDNAKNTVYLQMNSLKPEDTAVYYCNADWYRTGRRGSDYWGQGTQVTVSS | low polyreactivity |
| QVQLVEAGGGLVQAGGSLRLSCAASGRIIVRNAMGWYLQPPGKESELVAAISWSSGGTYYADSVKGRFTISRDNAKNTVYLQMNSLKPEDTAVYYCNADPSRAGDYWGQGTQVTVSS | low polyreactivity |
| QVQLVEAGGGLVQAGGSLRLSCAASGRILRYYTMGWYRPAPGKERELVAAISRRGTSTHYADSVKGRFTISRDHAKNTVYLQMNSLKPEDTAVYYCAADPSVWSDYYYWGQGTQVTVSS | high polyreactivity |
| QVQLVEAGGGLVQAGGSLRLSCAASGRTFGSNAMGWYRQAPGKERELVAVITTSGGSTYYADSVKGRFTISRDNAKNTVYLQMNSLKPEDTAVYYCAKRVATGYIWYGYGYWGQGTQVTVSS | high polyreactivity |
| QVQLVEAGGGLVQAGGSLRLSCAASGRTFLYYDMGRYRQAPGKERELVAVITLRGGRTYYADSVKGRFTISRDNAKNTVYLQMNILKPEDTAVYYCAKDYSRGYNYWGQGTQVTVSS | high polyreactivity |
| QVQLVEAGGGLVQAGGSLRLSCAASGSIFFIYAMGWYRQAPGKERELVAAITSGDRTYYADSVKGRFTISRDNAKNTVYLQMNSLKPEDTAVYYCNADYYISYWGQGTQVTVSS | low polyreactivity |
